B1: LINE1-full (parent)
chain: UACGUAGGUGGUUUUCCCCUGAUAGUGCUAAGGGGGCCUGGAAGUUUGGACUGGGCAGAGCUCAACACAGCGUGGCAAAGUGGCUGUGGCUAGACUGCCUCUCUGGAUUCCUCGUCACUCAGCAGGGCAUCUCUGAGAGAAAUGCC

Variants of: B1
Assay: self-cleavage, relative activity (ratio to wild type); higher = more cleavage; in vitro, sequencing; the parent is a self-cleaving ribozyme

Variant | self-cleavage
U12C G25A | 1.18
U45A A92C | 0.14
G53U A142G | 1.2
A50U A140G | 1.05
A94G U109C | 0.07
U13C C90U | 0.04
U81C U132C | 1.61
C71U U100C | 1.31
U132C A138U | 1.48
G83A U119A | 0.85
U47A A67U | 0.12
U91C A129G | 0.47
U12C A78C | 2.54
A64G G80A | 0.39
A65C A124G | 0.1
U13C G122U | 1.02
U23C G55C | 0.06
C76U A107U | 2.27
A64U A124U | 0.38
U26C A57U | 0.14
A65G A140G | 0.04
A24C U91A | 0.57
A42G A65C | 0.07
U20G A107G | 0.72

Variant | self-cleavage
U46C G89A | 0.04
A57G A121G | 1.07
C66U A142G | 0.05
C71U U73A | 0.31
U87A U119G | 0.07
A94C U115A | 0.1
G34U U115C | 1.84
U47C U102A | 1.84
U5C U104C | 1.11
U12C G74A | 1
U29C A50U | 1.14
U1C A31U | 0.61
U13G U47C | 1.17
A2G G27A | 0.19
U29C G127A | 0.64
U62A U112C | 0.04
G88A U115C | 0.06
U96C G135A | 0.24
U12G U62A | 0.16
A67G C113U | 0.44
U26C U134C | 0.83
U73C C101U | 1.01
U52C A64G | 0.34
A22U C99U | 0.51

Variant | self-cleavage
U13C A121U | 1.26
U87A A124G | 0.07
U52A U119A | 1.47
A24G G122C | 1.12
U102C U143A | 1.36
A69G C95A | 0
U12A C98U | 0.41
G32A A64U | 0.36
G80U U109C | 1.21
U13C U132A | 1.3
C37G U115C | 1.44
C28G U134C | 0.82
C51A U115C | 1.5
A2G U12G | 0.95
C28U U39C | 0.97
A22U U85C | 0.26
U5C U81C | 0.8
G33A U62C | 0.05
C98U A141G | 0.45
U109C A121C | 0.99
A129G G144A | 1.66
G35A A79G | 1.36
A78C A141G | 1.74
U5C U52A | 1.02

Variant | self-cleavage
A31U A129U | 0.33
U13C U45G | 1.46
A64C A142G | 0.25
G4C U12G | 0.93
U12A G35C | 1.52
U102A C145U | 1.04
C19U G105U | 1.55
A64G A79U | 0.34
U46C C68U | 0.44
A22G G80A | 2.37
G49U U96C | 0.11
U115C A138G | 1.79
U52C U134G | 2.76
A77G A140U | 2.21
U119C U130C | 1.72
U15C A59U | 0.94
G74A U143A | 1.72
U45C G53A | 1.64
U109A U143C | 1.8
A24U U45C | 1.19
U52C U104A | 1.02
G54A A65G | 0.02
U26A U119G | 1.45
G48A A117G | 1.47

Variant | self-cleavage
A79U A136G | 1.96
U62C G105A | 0.03
U45C U47A | 1.3
U15C G127A | 1.05
A24U A78G | 1.31
C3G A31U | 0.98
A42U A94G | 0.24
G80A A117G | 2.22
G35A A92C | 0.05
U73C A141G | 1.62
U115G A129G | 1.16
G93A A121U | 0.06
A50G G106A | 1.41
G35A U85C | 0.09
A57U C110U | 0.05
U39C A79C | 2.53
U112C A136U | 1.84
U9A U100C | 1.18
A92U A94U | 0.32
U20C G44U | 1.06
G33C C71U | 1.93
A6G U85G | 0
A57G U109C | 0.49
U81A A129U | 2.57

Variant | self-cleavage
U104A A117G | 1.67
G7A A129U | 1.21
A30U U62C | 0.07
U26G U91C | 0.44
U29G C113U | 0.66
G7U A142G | 1.15
A24U A42G | 1.54
U46C A64G | 0.38
A42U C66A | 0.03
U20A U143C | 0.9
G53U A64U | 0.45
A43G A64G | 0.32
A67G G88A | 0.05
U47G A136U | 1.53
U109A A141G | 1.76
C18U A24G | 1.01
U5C A94C | 0
A57U U115C | 0.18
A24C U47C | 2.18
U96G A136G | 0.13
A22G G32A | 0.57
U5C C76U | 1.88
U100C U108C | 2.05
A22G U130A | 1.52

Variant | self-cleavage
G27A A142G | 1.15
U46A G125C | 1.35
A22G C145U | 0.97
U14C C128U | 0.2
A64U G125U | 0.41
U20C U46C | 1.5
C18A G36A | 1.12
G72A U85G | 0.21
A117U C131A | 1.27
G49A U143C | 1.09
C19U A79U | 1.47
U23C G106U | 1.04
U104A C120U | 1.65
C111U A141G | 0.45
C84G | 0.09
U14A U52C | 0.8
A2C U62C | 0.11
G34A A129G | 1.08
U15C A69U | 0.09
U20C U45G | 1.38
A69G A136U | 0.45
G11A A79G | 0.56
U47C G126A | 1.84
U12C C145G | 1.06

Variant | self-cleavage
A43G U96A | 0.07
G4A U46A | 1.17
G33U U85C | 0.06
U15C U108A | 2.1
U108A A129G | 0.99
U12C U13C | 1.2
U14C G36U | 1.31
A57C | 0.08
A42G U134G | 1.68
U73A G126A | 0.57
U96A U130C | 0.06
U29C G114C | 1.49
A57U U100C | 0.19
A22U G93A | 0.07
A22G C110U | 0.92
C68U G74A | 0.2
A31U U119C | 1.62
G11A C95A | 0.06
A24U A107G | 2.24
A57G A107U | 0.92
U14C A129U | 1.35
A94G U115A | 0.34
U1G U39C | 0.72
U14C G34U | 0.45

Variant | self-cleavage
A79G U87C | 0.17
A59G A77U | 0.05
U20C A65U | 0.14
A67G U104C | 0.96
U143A | 1.12
G4U U73C | 2.45
G80C A107G | 1.52
U13C G105A | 1.33
A64G A121C | 0.24
U29G | 1.1
U29A | 1.23
A94G C95A | 0.07
G8C A121C | 1.75
A42U C128G | 0.87
U45C C51U | 1.58
C17A A59U | 0.69
U45C U46G | 1.37
A22G C131G | 1.8
U9A G93A | 0.06
A67C A141G | 0.12
U45C A107U | 1.34
U104C C146U | 2.3
A6G U14C | 0.61
G40U U100A | 0.89

Variant | self-cleavage
U9G G44A | 1.53
U52C A121G | 1.41
U23C A129G | 0
U20C C118U | 1.2
G33A | 1.14
G4A U85A | 0.04
G36A A42G | 1.07
U20C A57U | 0.07
C3A U109C | 0.53
U14A U45A | 0.23
G33A A142U | 1.43
U13C A59G | 0.13
U81A C103U | 0.63
A67C C110A | 0.05
U47C U73C | 1.55
C76U A117C | 2.66
A42G U52C | 1.17
U23A A138G | 0.76
U104A U130A | 0.89
U85G U102C | 0.55
G32A A57G | 1.37
C95U U115C | 0.54
G32A U100C | 1.34
U13C A30G | 0.77

Variant | self-cleavage
A77U A94U | 0.2
A22U G144A | 1.08
C76U U108C | 2.53
A30C A57G | 0.52
A64U U96A | 0.06
G34A U102A | 1.16
A77G A142G | 2.14
A43C A65G | 0
A59C | 0.96
U29C A117G | 0.44
G4A G75A | 0.87
G33A A59G | 0.12
U12C C101A | 1.72
U13A C56A | 0.05
A69G U115G | 0.57
A69G A121G | 0.6
U23A A64C | 0.48
C113U A117G | 1.54
U91A A121G | 0.84
C19A A57G | 1.11
U26A U87A | 0.01
A42G A57G | 0.95
C19U G93A | 0.07
A50G A92U | 0.37

Variant | self-cleavage
U96C A142U | 0.12
U134C A138G | 1.4
A64C A117G | 0.42
G33U A140G | 1.83
U112A A117G | 1.82
A43G G105U | 1.65
U26C G144C | 1.68
G7U U73C | 1.55
G4A A42U | 0.78
A92U G105A | 0.77
A121C A129G | 1.23
A65G C131G | 0.06
G7U U52C | 1.1
U12G U46C | 1.29
C68A U109C | 0.06
A22G A117G | 0.97
A129G U132C | 1.58
A22U U119C | 1.52
A24G G75A | 1.02
U45A U109C | 1.4
U20G G127A | 1.37
U23C U26G | 1.45
U9A A22U | 0.89
G53A U87C | 0.18

Variant | self-cleavage
A50U A124G | 0.71
A50G C51U | 0.62
C118U | 1.32
U1A A65G | 0.07
U12C A92C | 0.81
C56U A129G | 0.22
U9C U143C | 1.31
U46C A78U | 1.85
G49U G70A | 0.04
U26C U85A | 0.11
A43G A78U | 1.86
A78U C99U | 1.07
A22C U81C | 1.04
G33U U96C | 0.17
A69C A77U | 0.09
U9G A43G | 0.85
U20G U104A | 1.29
U1A U26G | 1.19
U73A U104A | 1.09
C19U U119C | 1.38
A30G U73A | 1.19
U85C U102A | 0.18
U26C A42G | 1.06
A2C A141G | 0.9

Variant | self-cleavage
C28U A121G | 0.66
U85A A124G | 0.04
U85A A124C | 0.08
A43U A121U | 0.79
U12A U96G | 0.38
U47C A77U | 1.2
G60A C61G | 0.04
G97C U108A | 0.14
U12C A124G | 1.23
A64G U91C | 0.07
U9A A42G | 1.14
G34U A50U | 0.39
U104C G125A | 1.28
U14C U100C | 1.55
C37U U132C | 1.21
G27A U73C | 0.93
U26G U119C | 0.98
A65U U73A | 0.18
A30G U62A | 0.04
A31C A78G | 1.1
U23C A50U | 1
U112C A124G | 0.64

— the RNAGym collection of RNA variant scans (doi:10.7554/elife.90254)
